Reference: publication doi:10.1101/748145 (bioRxiv, 2019)

B1: LetB three-ring truncation mutant (rings 2-5 deleted), TM helix removed (domain or fragment)
chain: QDRGNTVTIDFMSADGIVPGRTPVRYQGVEVGTVQDISLSDDLRKIEVKVSIKSDMKDALREETQFWLVTPKASLAGVSGLDALVGGNYIGMMPGKGKEQDHFVALDTQPKYRLDNGSETAARAVGGQITLHAFDAGKLAVGMPIRYLGIDIGQIQTLDLITARNEVQAKAVLYPEYVQTFARGGTRFSVVTPQISAAGVEHLDTILQPYINVEPGRGNPRRDFELQEATITDSRYLDGLSIIVEAPEAGSLGIGTPVLFRGLEVGTVTGMTLGTLSDRVMIAMRISKRYQHLVRNNSVFWLASGYSLDFGLTGGVVKTGTFNQFIRGGIAFATPPGTPLAPKAQEGKHFLLQESEPKEWREWGTALPK
B2: LetB L243N (periplasmic domain) (domain or fragment, E. coli, UniProt P76272 43-877, looked up)
chain: QDRGNTVTIDFMSADGIVPGRTPVRYQGVEVGTVQDISLSDDLRKIEVKVSIKSDMKDALREETQFWLVTPKASLAGVSGLDALVGGNYIGMMPGKGKEQDHFVALDTQPKYRLDNGDLMIHLQAPDLGSLNSGSLVYFRKIPVGKVYDYAINPNKQGVVIDVLIERRFTDLVKKGSRFWNVSGVDANVSISGAKVKLESNAALVNGAIAFDSPEESKPAEAEDTFGLYEDLAHSQRGVIIKLELPSGAGLTADSTPLMYQGLEVGQLTKLDLNPGGKVTGEMTVDPSVVTLLRENTRIELRNPKLSLSDANLSALLTGKTFELVPGDGEPRKEFVVVPGEKALLHEPDVLTLTLTAPESYGIDAGQPLILHGVQVGQVIDRKLTSKGVTFTVAIEPQHRELVKGDSKFVVNSRVDVKVGLDGVEFLGASASEWINGGIRILPGDKGEMKASYPLYANLEKALENSLSDLPTTTVSLSAETLPDVQAGSVVLYRKFEVGEVITVRPRANAFDIDLHIKPEYRNLLTSNSVFWAEGGAKVQLNGSGLTVQASPLSRALKGAISFDNLSGASASQRKGDKRILYASETAARAVGGQITLHAFDAGKLAVGMPIRYLGIDIGQIQTLDLITARNEVQAKAVLYPEYVQTFARGGTRFSVVTPQISAAGVEHLDTILQPYINVEPGRGNPRRDFELQEATITDSRYLDGLSIIVEAPEAGSLGIGTPVLFRGLEVGTVTGMTLGTLSDRVMIAMRISKRYQHLVRNNSVFWLASGYSLDFGLTGGVVKTGTFNQFIRGGIAFATPPGTPLAPKAQEGKHFLLQESEPKEWREWGTALPK
B3: LetB L358N (periplasmic domain) (domain or fragment, E. coli, UniProt P76272 43-877, looked up)
chain: QDRGNTVTIDFMSADGIVPGRTPVRYQGVEVGTVQDISLSDDLRKIEVKVSIKSDMKDALREETQFWLVTPKASLAGVSGLDALVGGNYIGMMPGKGKEQDHFVALDTQPKYRLDNGDLMIHLQAPDLGSLNSGSLVYFRKIPVGKVYDYAINPNKQGVVIDVLIERRFTDLVKKGSRFWNVSGVDANVSISGAKVKLESLAALVNGAIAFDSPEESKPAEAEDTFGLYEDLAHSQRGVIIKLELPSGAGLTADSTPLMYQGLEVGQLTKLDLNPGGKVTGEMTVDPSVVTLLRENTRIELRNPKLSLSDANLSANLTGKTFELVPGDGEPRKEFVVVPGEKALLHEPDVLTLTLTAPESYGIDAGQPLILHGVQVGQVIDRKLTSKGVTFTVAIEPQHRELVKGDSKFVVNSRVDVKVGLDGVEFLGASASEWINGGIRILPGDKGEMKASYPLYANLEKALENSLSDLPTTTVSLSAETLPDVQAGSVVLYRKFEVGEVITVRPRANAFDIDLHIKPEYRNLLTSNSVFWAEGGAKVQLNGSGLTVQASPLSRALKGAISFDNLSGASASQRKGDKRILYASETAARAVGGQITLHAFDAGKLAVGMPIRYLGIDIGQIQTLDLITARNEVQAKAVLYPEYVQTFARGGTRFSVVTPQISAAGVEHLDTILQPYINVEPGRGNPRRDFELQEATITDSRYLDGLSIIVEAPEAGSLGIGTPVLFRGLEVGTVTGMTLGTLSDRVMIAMRISKRYQHLVRNNSVFWLASGYSLDFGLTGGVVKTGTFNQFIRGGIAFATPPGTPLAPKAQEGKHFLLQESEPKEWREWGTALPK
B4: LetB L359N (periplasmic domain) (domain or fragment, E. coli, UniProt P76272 43-877, looked up)
chain: QDRGNTVTIDFMSADGIVPGRTPVRYQGVEVGTVQDISLSDDLRKIEVKVSIKSDMKDALREETQFWLVTPKASLAGVSGLDALVGGNYIGMMPGKGKEQDHFVALDTQPKYRLDNGDLMIHLQAPDLGSLNSGSLVYFRKIPVGKVYDYAINPNKQGVVIDVLIERRFTDLVKKGSRFWNVSGVDANVSISGAKVKLESLAALVNGAIAFDSPEESKPAEAEDTFGLYEDLAHSQRGVIIKLELPSGAGLTADSTPLMYQGLEVGQLTKLDLNPGGKVTGEMTVDPSVVTLLRENTRIELRNPKLSLSDANLSALNTGKTFELVPGDGEPRKEFVVVPGEKALLHEPDVLTLTLTAPESYGIDAGQPLILHGVQVGQVIDRKLTSKGVTFTVAIEPQHRELVKGDSKFVVNSRVDVKVGLDGVEFLGASASEWINGGIRILPGDKGEMKASYPLYANLEKALENSLSDLPTTTVSLSAETLPDVQAGSVVLYRKFEVGEVITVRPRANAFDIDLHIKPEYRNLLTSNSVFWAEGGAKVQLNGSGLTVQASPLSRALKGAISFDNLSGASASQRKGDKRILYASETAARAVGGQITLHAFDAGKLAVGMPIRYLGIDIGQIQTLDLITARNEVQAKAVLYPEYVQTFARGGTRFSVVTPQISAAGVEHLDTILQPYINVEPGRGNPRRDFELQEATITDSRYLDGLSIIVEAPEAGSLGIGTPVLFRGLEVGTVTGMTLGTLSDRVMIAMRISKRYQHLVRNNSVFWLASGYSLDFGLTGGVVKTGTFNQFIRGGIAFATPPGTPLAPKAQEGKHFLLQESEPKEWREWGTALPK
B5: LetB L246N (periplasmic domain) (domain or fragment, E. coli, UniProt P76272 43-877, looked up)
chain: QDRGNTVTIDFMSADGIVPGRTPVRYQGVEVGTVQDISLSDDLRKIEVKVSIKSDMKDALREETQFWLVTPKASLAGVSGLDALVGGNYIGMMPGKGKEQDHFVALDTQPKYRLDNGDLMIHLQAPDLGSLNSGSLVYFRKIPVGKVYDYAINPNKQGVVIDVLIERRFTDLVKKGSRFWNVSGVDANVSISGAKVKLESLAANVNGAIAFDSPEESKPAEAEDTFGLYEDLAHSQRGVIIKLELPSGAGLTADSTPLMYQGLEVGQLTKLDLNPGGKVTGEMTVDPSVVTLLRENTRIELRNPKLSLSDANLSALLTGKTFELVPGDGEPRKEFVVVPGEKALLHEPDVLTLTLTAPESYGIDAGQPLILHGVQVGQVIDRKLTSKGVTFTVAIEPQHRELVKGDSKFVVNSRVDVKVGLDGVEFLGASASEWINGGIRILPGDKGEMKASYPLYANLEKALENSLSDLPTTTVSLSAETLPDVQAGSVVLYRKFEVGEVITVRPRANAFDIDLHIKPEYRNLLTSNSVFWAEGGAKVQLNGSGLTVQASPLSRALKGAISFDNLSGASASQRKGDKRILYASETAARAVGGQITLHAFDAGKLAVGMPIRYLGIDIGQIQTLDLITARNEVQAKAVLYPEYVQTFARGGTRFSVVTPQISAAGVEHLDTILQPYINVEPGRGNPRRDFELQEATITDSRYLDGLSIIVEAPEAGSLGIGTPVLFRGLEVGTVTGMTLGTLSDRVMIAMRISKRYQHLVRNNSVFWLASGYSLDFGLTGGVVKTGTFNQFIRGGIAFATPPGTPLAPKAQEGKHFLLQESEPKEWREWGTALPK
B6: LetB V247N (periplasmic domain) (domain or fragment, E. coli, UniProt P76272 43-877, looked up)
chain: QDRGNTVTIDFMSADGIVPGRTPVRYQGVEVGTVQDISLSDDLRKIEVKVSIKSDMKDALREETQFWLVTPKASLAGVSGLDALVGGNYIGMMPGKGKEQDHFVALDTQPKYRLDNGDLMIHLQAPDLGSLNSGSLVYFRKIPVGKVYDYAINPNKQGVVIDVLIERRFTDLVKKGSRFWNVSGVDANVSISGAKVKLESLAALNNGAIAFDSPEESKPAEAEDTFGLYEDLAHSQRGVIIKLELPSGAGLTADSTPLMYQGLEVGQLTKLDLNPGGKVTGEMTVDPSVVTLLRENTRIELRNPKLSLSDANLSALLTGKTFELVPGDGEPRKEFVVVPGEKALLHEPDVLTLTLTAPESYGIDAGQPLILHGVQVGQVIDRKLTSKGVTFTVAIEPQHRELVKGDSKFVVNSRVDVKVGLDGVEFLGASASEWINGGIRILPGDKGEMKASYPLYANLEKALENSLSDLPTTTVSLSAETLPDVQAGSVVLYRKFEVGEVITVRPRANAFDIDLHIKPEYRNLLTSNSVFWAEGGAKVQLNGSGLTVQASPLSRALKGAISFDNLSGASASQRKGDKRILYASETAARAVGGQITLHAFDAGKLAVGMPIRYLGIDIGQIQTLDLITARNEVQAKAVLYPEYVQTFARGGTRFSVVTPQISAAGVEHLDTILQPYINVEPGRGNPRRDFELQEATITDSRYLDGLSIIVEAPEAGSLGIGTPVLFRGLEVGTVTGMTLGTLSDRVMIAMRISKRYQHLVRNNSVFWLASGYSLDFGLTGGVVKTGTFNQFIRGGIAFATPPGTPLAPKAQEGKHFLLQESEPKEWREWGTALPK
B7: LetB L355N (periplasmic domain) (domain or fragment, E. coli, UniProt P76272 43-877, looked up)
chain: QDRGNTVTIDFMSADGIVPGRTPVRYQGVEVGTVQDISLSDDLRKIEVKVSIKSDMKDALREETQFWLVTPKASLAGVSGLDALVGGNYIGMMPGKGKEQDHFVALDTQPKYRLDNGDLMIHLQAPDLGSLNSGSLVYFRKIPVGKVYDYAINPNKQGVVIDVLIERRFTDLVKKGSRFWNVSGVDANVSISGAKVKLESLAALVNGAIAFDSPEESKPAEAEDTFGLYEDLAHSQRGVIIKLELPSGAGLTADSTPLMYQGLEVGQLTKLDLNPGGKVTGEMTVDPSVVTLLRENTRIELRNPKLSLSDANNSALLTGKTFELVPGDGEPRKEFVVVPGEKALLHEPDVLTLTLTAPESYGIDAGQPLILHGVQVGQVIDRKLTSKGVTFTVAIEPQHRELVKGDSKFVVNSRVDVKVGLDGVEFLGASASEWINGGIRILPGDKGEMKASYPLYANLEKALENSLSDLPTTTVSLSAETLPDVQAGSVVLYRKFEVGEVITVRPRANAFDIDLHIKPEYRNLLTSNSVFWAEGGAKVQLNGSGLTVQASPLSRALKGAISFDNLSGASASQRKGDKRILYASETAARAVGGQITLHAFDAGKLAVGMPIRYLGIDIGQIQTLDLITARNEVQAKAVLYPEYVQTFARGGTRFSVVTPQISAAGVEHLDTILQPYINVEPGRGNPRRDFELQEATITDSRYLDGLSIIVEAPEAGSLGIGTPVLFRGLEVGTVTGMTLGTLSDRVMIAMRISKRYQHLVRNNSVFWLASGYSLDFGLTGGVVKTGTFNQFIRGGIAFATPPGTPLAPKAQEGKHFLLQESEPKEWREWGTALPK
B8: LetB two-ring truncation mutant (rings 2-6 deleted), TM helix removed (domain or fragment)
chain: QDRGNTVTIDFMSADGIVPGRTPVRYQGVEVGTVQDISLSDDLRKIEVKVSIKSDMKDALREETQFWLVTPKASLAGVSGLDALVGGNYIGMMPGKGKEQDHFVALDTQPKYRLDNGDGLSIIVEAPEAGSLGIGTPVLFRGLEVGTVTGMTLGTLSDRVMIAMRISKRYQHLVRNNSVFWLASGYSLDFGLTGGVVKTGTFNQFIRGGIAFATPPGTPLAPKAQEGKHFLLQESEPKEWREWGTALPK

Target: the molecule itself
Assay: negative stain EM
B1 was tested, and the “stoichiometry N” value was 6.
In the case of B2, the “stoichiometry N” value is reported as 6.
With B3 the “stoichiometry N” value was 6.
B4 was tested, and the “stoichiometry N” value was 6.
For B5, the “stoichiometry N” value was 6.
For B6, the “stoichiometry N” value was 6.
B7 was tested, and the “stoichiometry N” value was 6.
For B8, the “stoichiometry N” value was 6.
